From paper PMC4180279
pKd: −log10 of the molar value.

Legend:
[1] = target: GST-P/Q, residues 1898-2035 of the rat P/Q channel α1 subunit (Cav2.1) C-terminal tail (rat); assay: pull-down; 5 μM GST fusion protein immobilised on glutathione-agarose; 5 μM GST-free NCS-1 or CaM added; 150 mM KCl, 20 mM HEPES pH 7.4, 10% glycerol, 5 mM NTA, 5 mM EGTA, 1 mM DTT, 0.1% NP-40, with 1 μM free Ca2+; 1 h, 4 °C; Western blot, densitometry normalised to NCS-1 on GST-PQ with Ca2+ = 100%
[2] = target: Cav2.1 P/Q-type calcium channel IQ domain (Homo sapiens) (UniProt O00555); assay: ITC; conditions: cited from earlier work
Sequence of Cav2.1 P/Q-type calcium channel IQ domain (Homo sapiens) (O00555 1963-1983): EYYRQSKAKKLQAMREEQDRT

Sequence of Neuronal calcium sensor-1 (NCS-1), GST-free recombinant protein from the GST-NCS-1 plasmid (P62166 whole entry): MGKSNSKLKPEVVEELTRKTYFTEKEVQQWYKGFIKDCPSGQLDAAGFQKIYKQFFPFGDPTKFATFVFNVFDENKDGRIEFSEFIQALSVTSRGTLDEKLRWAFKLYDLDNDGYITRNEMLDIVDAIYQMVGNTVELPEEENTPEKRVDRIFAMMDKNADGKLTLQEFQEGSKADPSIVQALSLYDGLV

Substance	average NCS-1 bound (%) [1] [%]	pKd [2]
Neuronal calcium sensor-1 (NCS-1), GST-free recombinant protein from the GST-NCS-1 plasmid (from UniProt P62166 1-190) (natural protein)	100	
calmodulin C lobe C lobe (from UniProt P0DP23)		8.36
